Measured values as given in US20230346961A1, “GLP-1 AND GIP RECEPTOR CO-AGONISTS” (Novo Nordisk A/S, priority 2020, published 2023).
Starred links: 1 amine or outer side, 2 acyl side, 3 side chain; linkers in the order of their positions; H or OH if unused. Non-standard residues stand in square brackets, D forms with d. Groups on a side chain read outwards from the residue. No end group written: not given here. *: point of attachment. C18 diacid = O=C(O)CCCCCCCCCCCCCCCCC(=O)*; γGlu = O=C(O)[C@H](CCC(=O)[*:2])N[*:1]; AEEA = NCCOCCOCC(=O)O; Aib = CC(C)(N)C(=O)O

How the values were obtained:
Assay in all cases: cell-based or functional assay
[1] = molecular target: human glucagon-like peptide 1 receptor (human, UniProt P43220 24-463)
[2] = molecular target: T1, human glucose-dependent insulinotropic polypeptide receptor (human, UniProt P48546 22-466)
T1 sequence (looked up): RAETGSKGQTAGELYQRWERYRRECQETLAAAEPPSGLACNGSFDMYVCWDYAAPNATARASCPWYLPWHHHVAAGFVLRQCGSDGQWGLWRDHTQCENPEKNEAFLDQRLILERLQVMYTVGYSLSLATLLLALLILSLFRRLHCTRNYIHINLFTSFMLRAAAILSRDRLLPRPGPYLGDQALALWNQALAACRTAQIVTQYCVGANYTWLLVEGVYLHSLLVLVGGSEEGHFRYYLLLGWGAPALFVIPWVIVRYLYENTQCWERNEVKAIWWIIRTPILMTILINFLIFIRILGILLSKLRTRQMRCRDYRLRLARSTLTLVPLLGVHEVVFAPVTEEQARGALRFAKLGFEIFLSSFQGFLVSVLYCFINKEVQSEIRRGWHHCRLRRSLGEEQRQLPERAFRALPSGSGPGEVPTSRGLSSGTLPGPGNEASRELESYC

[3] = molecular target: T2, mouse glucagon-like peptide 1 receptor (mouse, UniProt O35659 22-463)
T2 sequence (looked up): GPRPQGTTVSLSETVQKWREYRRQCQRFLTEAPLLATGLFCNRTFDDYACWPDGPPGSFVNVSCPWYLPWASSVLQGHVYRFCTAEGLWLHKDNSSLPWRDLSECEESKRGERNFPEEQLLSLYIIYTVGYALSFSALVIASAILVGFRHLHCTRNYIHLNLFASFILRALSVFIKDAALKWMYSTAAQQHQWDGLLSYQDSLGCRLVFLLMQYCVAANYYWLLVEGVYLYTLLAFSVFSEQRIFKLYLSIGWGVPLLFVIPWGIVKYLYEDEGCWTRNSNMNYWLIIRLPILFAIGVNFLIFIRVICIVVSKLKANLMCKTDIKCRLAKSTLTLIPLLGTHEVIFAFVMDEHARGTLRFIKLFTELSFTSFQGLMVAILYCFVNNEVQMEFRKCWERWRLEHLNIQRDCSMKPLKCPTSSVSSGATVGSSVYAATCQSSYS

[4] = molecular target: T3, mouse glucose-dependent insulinotropic polypeptide receptor (mouse, UniProt Q0P543 19-460)
T3 sequence (looked up): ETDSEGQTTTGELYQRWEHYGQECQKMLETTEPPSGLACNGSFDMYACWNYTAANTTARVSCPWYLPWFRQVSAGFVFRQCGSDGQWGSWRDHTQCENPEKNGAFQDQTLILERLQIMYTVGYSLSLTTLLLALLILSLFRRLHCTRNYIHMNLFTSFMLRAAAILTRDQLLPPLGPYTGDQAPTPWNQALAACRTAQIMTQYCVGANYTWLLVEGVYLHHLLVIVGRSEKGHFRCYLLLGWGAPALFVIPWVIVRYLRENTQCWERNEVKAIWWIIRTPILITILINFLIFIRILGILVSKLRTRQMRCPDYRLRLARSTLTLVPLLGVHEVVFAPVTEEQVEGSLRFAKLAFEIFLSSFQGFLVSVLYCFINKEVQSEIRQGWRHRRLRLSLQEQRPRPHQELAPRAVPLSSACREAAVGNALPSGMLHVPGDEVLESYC

Row | Binder | hGLP-1R, CRE Luc 0% HSA EC50 [1] | hGLP-1R, CRE Luc 1% HSA EC50 [1] | hGIPR, CRE Luc 0% HSA EC50 [2] | hGIPR, CRE Luc 1% HSA EC50 [2] | mGLP-1R, CRE Luc EC50 [3] | mGIPR, CRE Luc EC50 [4]
1 | Y[Aib]EGTFTSDYSIYLDKQAA[Aib]K([γGlu-γGlu-γGlu-C18 diacid])FVNWLLAGGPSSGAPPPS-NH2 (N-terminus assumed; SMILES CC[C@H](C)[C@H](NC(=O)[C@H](CO)NC(=O)[C@H](Cc1ccc(O)cc1)NC(=O)[C@H](CC(=O)O)NC(=O)[C@H](CO)NC(=O)[C@@H](NC(=O)[C@H](Cc1ccccc1)NC(=O)[C@@H](NC(=O)CNC(=O)[C@H](CCC(=O)O)NC(=O)C(C)(C)NC(=O)[C@@H](N)Cc1ccc(O)cc1)[C@@H](C)O)[C@@H](C)O)C(=O)N[C@@H](Cc1ccc(O)cc1)C(=O)N[C@@H](CC(C)C)C(=O)N[C@@H](CC(=O)O)C(=O)N[C@@H](CCCCN)C(=O)N[C@@H](CCC(N)=O)C(=O)N[C@@H](C)C(=O)N[C@@H](C)C(=O)NC(C)(C)C(=O)N[C@@H](CCCCNC(=O)CC[C@H](NC(=O)CC[C@H](NC(=O)CC[C@H](NC(=O)CCCCCCCCCCCCCCCCC(=O)O)C(=O)O)C(=O)O)C(=O)O)C(=O)N[C@@H](Cc1ccccc1)C(=O)N[C@H](C(=O)N[C@@H](CC(N)=O)C(=O)N[C@@H](Cc1c[nH]c2ccccc12)C(=O)N[C@@H](CC(C)C)C(=O)N[C@@H](CC(C)C)C(=O)N[C@@H](C)C(=O)NCC(=O)NCC(=O)N1CCC[C@H]1C(=O)N[C@@H](CO)C(=O)N[C@@H](CO)C(=O)NCC(=O)N[C@@H](C)C(=O)N1CCC[C@H]1C(=O)N1CCC[C@H]1C(=O)N1CCC[C@H]1C(=O)N[C@@H](CO)C(N)=O)C(C)C) [Compound #6] | 0.0059 nM | 0.244 nM | 0.0081 nM | 0.101 nM | 0.0023 nM | 1.27 nM
2 | Ac-[dY]AEGTFTSDYSIYLDKQAA[Aib]K([AEEA-AEEA-γGlu-C18 diacid])FVNWLLAGGPSSGAPPPS-NH2 (SMILES CC[C@H](C)[C@H](NC(=O)[C@H](CO)NC(=O)[C@H](Cc1ccc(O)cc1)NC(=O)[C@H](CC(=O)O)NC(=O)[C@H](CO)NC(=O)[C@@H](NC(=O)[C@H](Cc1ccccc1)NC(=O)[C@@H](NC(=O)CNC(=O)[C@H](CCC(=O)O)NC(=O)[C@H](C)NC(=O)[C@@H](Cc1ccc(O)cc1)NC(C)=O)[C@@H](C)O)[C@@H](C)O)C(=O)N[C@@H](Cc1ccc(O)cc1)C(=O)N[C@@H](CC(C)C)C(=O)N[C@@H](CC(=O)O)C(=O)N[C@@H](CCCCN)C(=O)N[C@@H](CCC(N)=O)C(=O)N[C@@H](C)C(=O)N[C@@H](C)C(=O)NC(C)(C)C(=O)N[C@@H](CCCCNC(=O)COCCOCCNC(=O)COCCOCCNC(=O)CC[C@H](NC(=O)CCCCCCCCCCCCCCCCC(=O)O)C(=O)O)C(=O)N[C@@H](Cc1ccccc1)C(=O)N[C@H](C(=O)N[C@@H](CC(N)=O)C(=O)N[C@@H](Cc1c[nH]c2ccccc12)C(=O)N[C@@H](CC(C)C)C(=O)N[C@@H](CC(C)C)C(=O)N[C@@H](C)C(=O)NCC(=O)NCC(=O)N1CCC[C@H]1C(=O)N[C@@H](CO)C(=O)N[C@@H](CO)C(=O)NCC(=O)N[C@@H](C)C(=O)N1CCC[C@H]1C(=O)N1CCC[C@H]1C(=O)N1CCC[C@H]1C(=O)N[C@@H](CO)C(N)=O)C(C)C) [Compound #7] | 0.0557 nM | 1.73 nM | 0.0033 nM | 0.0493 nM | 0.0174 nM | 0.0425 nM
